Reference: PMC7560607, “Synapse type-specific proteomic dissection identifies IgSF8 as a hippocampal CA3 microcircuit organizer” (Nature Communications, 2020)

Key:
[1] = target: T1, Tenascin-R, AP- or Fc-tagged (interactome library) ( (human or mouse sequence …, UniProt Q8BYI9 32-1358)); experiment: BLI; BLItz, RT; TenR-Fc captured from EXPI293 conditioned medium on anti-human Fc sensors; purified IgSF8 34-0.133 µM in twofold dilution; 10 mM Hepes pH 7.4, 150 mM NaCl, 1 mM CaCl2, 0.2% Tween20, 1% BSA; KD from response vs concentration; Fc-only sensor subtracted; details: one partner purified
T1 construct: In the BLI experiment only the Fc fusion stood, captured from conditioned medium of EXPI293 cells on anti-human Fc sensors; also called TenR; TenR-Fc/AP; source: Expi293 cells, transfected, conditioned medium used without purification; not shown: Fc (human IgG1) in the Fc fusion, C-terminal, kept; alkaline phosphatase (human) in the AP fusion, C-terminal, kept
T1 sequence (looked up): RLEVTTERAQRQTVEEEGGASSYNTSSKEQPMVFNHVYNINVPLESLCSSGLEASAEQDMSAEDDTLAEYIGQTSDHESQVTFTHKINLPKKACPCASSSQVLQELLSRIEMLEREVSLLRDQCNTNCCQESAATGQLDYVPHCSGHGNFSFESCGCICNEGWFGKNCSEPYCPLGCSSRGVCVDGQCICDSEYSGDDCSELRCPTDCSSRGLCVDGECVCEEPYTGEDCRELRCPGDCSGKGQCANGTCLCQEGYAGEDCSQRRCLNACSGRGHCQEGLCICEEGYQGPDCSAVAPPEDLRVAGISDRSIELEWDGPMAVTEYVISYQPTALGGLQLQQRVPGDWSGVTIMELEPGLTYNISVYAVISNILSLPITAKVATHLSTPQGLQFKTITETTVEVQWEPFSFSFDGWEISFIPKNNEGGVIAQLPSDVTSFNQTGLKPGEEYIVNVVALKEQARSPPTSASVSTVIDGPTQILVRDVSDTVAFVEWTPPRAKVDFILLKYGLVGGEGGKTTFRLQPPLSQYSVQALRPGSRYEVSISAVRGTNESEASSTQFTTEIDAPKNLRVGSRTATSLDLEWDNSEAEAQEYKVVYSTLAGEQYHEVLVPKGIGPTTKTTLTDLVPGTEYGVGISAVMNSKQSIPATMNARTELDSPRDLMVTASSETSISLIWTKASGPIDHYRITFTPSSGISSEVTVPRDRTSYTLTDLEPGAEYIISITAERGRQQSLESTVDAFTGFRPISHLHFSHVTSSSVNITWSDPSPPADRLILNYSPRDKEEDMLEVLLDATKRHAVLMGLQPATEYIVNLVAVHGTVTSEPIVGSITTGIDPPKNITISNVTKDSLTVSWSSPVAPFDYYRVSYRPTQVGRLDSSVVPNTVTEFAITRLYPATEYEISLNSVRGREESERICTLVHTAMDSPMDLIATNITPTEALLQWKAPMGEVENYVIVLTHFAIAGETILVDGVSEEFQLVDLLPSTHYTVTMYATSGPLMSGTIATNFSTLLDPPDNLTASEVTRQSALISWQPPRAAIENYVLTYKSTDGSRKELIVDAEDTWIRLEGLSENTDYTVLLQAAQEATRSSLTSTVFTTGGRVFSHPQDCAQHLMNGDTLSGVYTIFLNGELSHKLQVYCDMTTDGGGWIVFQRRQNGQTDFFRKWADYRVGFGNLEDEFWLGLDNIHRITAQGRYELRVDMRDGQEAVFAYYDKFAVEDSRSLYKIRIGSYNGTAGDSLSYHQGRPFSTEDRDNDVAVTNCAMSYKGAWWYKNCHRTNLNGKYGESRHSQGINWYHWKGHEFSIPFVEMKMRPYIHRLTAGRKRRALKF

[2] = target: T2, TenR-Fc (Tenascin-R fused to the Fc region of human IgG1) ( (human or mouse sequences …, UniProt Q8BYI9 32-1358)); experiment: BLI; BLItz, room temperature; TenR-Fc captured from conditioned medium on anti-human Fc biosensors; purified IgSF8 34-0.133 uM in twofold dilution; association in 10 mM Hepes pH 7.4, 150 mM NaCl, 1 mM CaCl2, 0.2% Tween20, 1% BSA; Fc-only sensor subtracted; binding response against concentration fitted as one site specific binding; details: one partner purified
T2 construct: Tenascin-R, secreted ECM protein; also called Tenascin-R-Fc; source: EXPI293 cells, transfected, conditioned medium; not shown: Fc (human IgG1), C-terminal, kept
T2 sequence (looked up): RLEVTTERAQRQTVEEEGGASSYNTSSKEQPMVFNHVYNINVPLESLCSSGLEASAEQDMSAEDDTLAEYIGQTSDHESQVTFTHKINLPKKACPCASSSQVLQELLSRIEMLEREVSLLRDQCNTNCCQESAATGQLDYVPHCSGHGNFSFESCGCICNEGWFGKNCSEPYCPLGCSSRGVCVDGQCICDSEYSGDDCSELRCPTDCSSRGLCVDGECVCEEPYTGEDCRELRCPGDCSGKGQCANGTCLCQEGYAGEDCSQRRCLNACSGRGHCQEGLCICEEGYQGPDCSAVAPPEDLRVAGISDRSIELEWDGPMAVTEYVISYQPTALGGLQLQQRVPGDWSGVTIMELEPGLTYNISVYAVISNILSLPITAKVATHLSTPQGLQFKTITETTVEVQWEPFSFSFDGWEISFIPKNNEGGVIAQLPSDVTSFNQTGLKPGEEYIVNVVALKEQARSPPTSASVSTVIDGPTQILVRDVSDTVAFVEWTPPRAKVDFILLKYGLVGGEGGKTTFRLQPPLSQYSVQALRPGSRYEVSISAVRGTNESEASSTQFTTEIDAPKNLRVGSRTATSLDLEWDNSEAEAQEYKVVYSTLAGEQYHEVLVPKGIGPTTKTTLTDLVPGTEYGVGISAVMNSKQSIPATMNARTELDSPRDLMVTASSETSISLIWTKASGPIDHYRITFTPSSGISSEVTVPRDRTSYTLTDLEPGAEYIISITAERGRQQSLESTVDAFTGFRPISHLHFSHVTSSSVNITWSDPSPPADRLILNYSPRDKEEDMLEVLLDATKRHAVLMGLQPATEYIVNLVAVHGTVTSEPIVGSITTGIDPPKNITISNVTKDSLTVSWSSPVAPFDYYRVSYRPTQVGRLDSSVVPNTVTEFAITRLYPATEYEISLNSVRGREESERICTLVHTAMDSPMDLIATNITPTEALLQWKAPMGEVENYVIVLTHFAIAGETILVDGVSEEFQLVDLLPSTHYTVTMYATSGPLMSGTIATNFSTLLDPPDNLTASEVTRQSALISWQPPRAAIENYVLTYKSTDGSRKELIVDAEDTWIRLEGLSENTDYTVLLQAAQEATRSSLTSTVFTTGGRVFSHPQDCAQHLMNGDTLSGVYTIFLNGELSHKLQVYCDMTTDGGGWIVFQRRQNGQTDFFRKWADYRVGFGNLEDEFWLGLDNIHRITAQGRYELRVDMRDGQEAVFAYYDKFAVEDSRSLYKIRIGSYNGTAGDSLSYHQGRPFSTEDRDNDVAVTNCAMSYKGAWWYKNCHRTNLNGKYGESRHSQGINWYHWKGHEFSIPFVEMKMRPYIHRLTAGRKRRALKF

| Binder | Kd [1] [nM] | Kd [2] [nM] |
| --- | --- | --- |
| purified IgSF8 (BLI analyte) (natural protein, Same molecule as Sm1. Secreted ectodomain, likely N-glycosylated; limits by convention (UniProt extracellular domain without the signal peptide).) RQVHVPRGPLYRVAGTAVSISCNVSDYEGPAQQDFEWFMYRPEAPATSLGIVSTKDSQFSYAVFGPRVASGDLQVQRLKGDSVVLKIARLQAQDSGFYECYTPSTDTQYLGNYSAKVELRVLPDELQVSAAPPGPRGRQAATSPSRLTVHEGQELALGCLAQTKTKKHTHLSVSFGRAIPEAPVGRATLQEVVGLRSDMAVEAGAPYAERLASGELRLSKEGTDRYRMVVGGAQAGDSGTYHCTAAEWIQDPDGSWVQVAEKRAVLAHVDVQTLSSQLAVTVGPGERRIGPGEPLELLCNVSGALPPPGRHAAYSVGWEMAPAGAPGPGRLVAQLDTEGIGSLGPGYEDRHIAMEKVASRTYRLRLEAARPADAGTYRCLAKAYVRGSGTRLREAASARSRPLPVHVREEGVVLEAVAWLAGGTVYRGETASLLCNISVRGGPPGLRLAASWWVERPEEGELSSGPAQLVGGVGQDGVAELGVRPGGGPVSVELVGPRSHRLRLHGLGPEDEGIYHCAPSAWVQHADYSWYQAGSARSGPVTVYPYTHAVDT | ~1400 | – |
| IgSF8 (purified IgSF8 protein used as analyte in biolayer interferometry) (receptor, Secreted ectodomain, likely N-glycosylated. Limits are the UniProt extracellular domain without the signal peptide. Mouse is inferred from the mouse IgSF8 cDNA (BC048387) and the mouse IgSF8-His used) RQVHVPRGPLYRVAGTAVSISCNVSDYEGPAQQDFEWFMYRPEAPATSLGIVSTKDSQFSYAVFGPRVASGDLQVQRLKGDSVVLKIARLQAQDSGFYECYTPSTDTQYLGNYSAKVELRVLPDELQVSAAPPGPRGRQAATSPSRLTVHEGQELALGCLAQTKTKKHTHLSVSFGRAIPEAPVGRATLQEVVGLRSDMAVEAGAPYAERLASGELRLSKEGTDRYRMVVGGAQAGDSGTYHCTAAEWIQDPDGSWVQVAEKRAVLAHVDVQTLSSQLAVTVGPGERRIGPGEPLELLCNVSGALPPPGRHAAYSVGWEMAPAGAPGPGRLVAQLDTEGIGSLGPGYEDRHIAMEKVASRTYRLRLEAARPADAGTYRCLAKAYVRGSGTRLREAASARSRPLPVHVREEGVVLEAVAWLAGGTVYRGETASLLCNISVRGGPPGLRLAASWWVERPEEGELSSGPAQLVGGVGQDGVAELGVRPGGGPVSVELVGPRSHRLRLHGLGPEDEGIYHCAPSAWVQHADYSWYQAGSARSGPVTVYPYTHAVDT | – | 1390 |
